From US20140161875A1 (KATHOLIEKE UNIVERSITEIT LEUVEN, published 2014)

Assays:
[1] = target: endogenous mouse tau (mouse, UniProt P10637-2 2-430, limits assumed); test: Western blot of mouse brain extracts
Excerpt: FIG. 3: Analysis of the novel mAbs on samples of transgenic mice and human brain. A) Western blot analysis of brain extracts from control mice (FVB), knock-out mice and transgenic (Tg) mice expressing a clinical mutant of human tau (Tau-P301L). The age of the mice is indicated between brackets. The arrow on the second blot indicates high molecular weight tau complexes. The antibodies used are ADx215 (YT1.15), ADx210 (YT1.10) and the commercial phosphorylation-specific antibody AT100 (exposure time of 30 min for ADx210 (YT1.10) and AT100, and 30 sec for ADx215 (YT1.15)). B) Tau epitope sequence recognized by ADx201 (YT1.1) and ADx215 (YT1.15). C) Western blot analysis of brain extracts from brain extracts obtained from a healthy person (non-AD) and an AD patient using the Mab ADx215 (YT1.15) (exposure time 2 min.). The brain regions from which the extracts were prepared are indicated. As control served brain extracts obtained from the hippocampus and cortex of the tau Tg mice Tau22. The arrow indicates high molecular weight tau complexes present in samples from AD brain. […]
Furthermore, the high affinity Mab ADx215 (YT1.15) specifically detected high molecular weight tau complexes in brain extracts of both Tg mice (Fig. A, C) and a late stage AD patient (data provided by L. Buée, Inserm U837, U. Lille, France; Fig. C).

[2] = target: T1, recombinant HIS-tagged tau obtained from E. coli (UniProt P10636-8 1-441, limits assumed); test: Western blot
T1 construct: also called E. coli-produced recombinant tau; recombinant non-phosphorylated tau purified from bacteria
Excerpt: FIG. 2: Selectivity for tau aggregates and phosphorylation dependency of anti-tau mAbs of the invention. A) Western blot analysis of recombinant HIS-tagged tau obtained from E. coli and protein extracts obtained from control and humanized yeast strains using the commercial pan-tau antibody Tau-5 and ADx210 mAb as indicated. The number between brackets refers to the exposure time. The solid bar refers to high molecular weight and oligomeric tau and the small arrow in the picture of ADx210 to a presumable tau dimer. B) Western blot analysis of purified tau obtained from the pho85Δ strain before and after treatment with shrimp alkaline phosphatase (SAP) following different time intervals as indicated. Recombinant HIS-tagged tau obtained from E. coli served as control. The pan-tau antibody Tau-5, the phosphorylation-specific antibody AT270, and the antibody BT2 recognizing non-phosphorylated tau, were used in addition to the novel mAbs ADx215 and ADx210.
The phosphorylation specificity was initially tested on extracts obtained from the humanized wild type yeast strain and its congenic mds1Δ and pho85Δ mutants that display reduced and increased tau phosphorylation. Recombinant tau produced by E. coli served as control.

Sequence of endogenous mouse tau (P10637 other isoform, or with tags, fused parts or gaps limits assumed): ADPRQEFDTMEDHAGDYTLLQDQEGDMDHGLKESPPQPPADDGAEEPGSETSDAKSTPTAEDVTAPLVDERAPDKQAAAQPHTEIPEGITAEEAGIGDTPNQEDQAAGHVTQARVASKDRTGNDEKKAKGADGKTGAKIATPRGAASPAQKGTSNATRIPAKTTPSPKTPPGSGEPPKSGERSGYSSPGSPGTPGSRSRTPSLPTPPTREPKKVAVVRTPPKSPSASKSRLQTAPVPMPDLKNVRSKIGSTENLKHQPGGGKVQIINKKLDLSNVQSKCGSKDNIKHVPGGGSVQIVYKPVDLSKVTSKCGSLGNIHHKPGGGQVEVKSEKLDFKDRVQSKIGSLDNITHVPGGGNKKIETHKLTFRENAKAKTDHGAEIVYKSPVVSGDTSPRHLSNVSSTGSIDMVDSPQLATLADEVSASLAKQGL

| Binder | binding result [1] | binding result [2] |
| --- | --- | --- |
| ADx215 monoclonal antibody (hybridoma LMBP 9679CB) (antibody, IgG1, V domains shown, also called YT1.15) VH: EVQLVESGGDLVKPGGSLKLSCAASGFNFRSYGMSWVRQTPDKRLEWVATISSGGNYTYYPDSVKGRFTISRDNAKNILYLQMSSLNSEDTALYYCTYSFYGAFDYWGQGTTLTVSS VL: DVLMTQTPLSLPVSLGDQASISCRSSQNILHSNGNTYLEWYLQKPGQSPKLLIYKVSSRFSGVPDRFSGSGSGTDFTLKITRVEAEDLGVYYCFQGSLVPWTFGGGTKLEIRR | no binding |  |
| ADx210 monoclonal antibody (hybridoma LMBP 8347CB) (antibody, V domains shown, Mouse hybridoma mAb (BALB/C immunised with yeast-purified tau); constant regions are not; also called YT1.10; IGH-593) VH: VQLQESGGGLVQPGGSRKLSCAASGFTFSNFGMHWVRQAPDKGLEWVAYITSGSSSIYYADTVKGRFTISRDNPKNTLFLQMTSLRSEDTAMYYCARSVPYGYGLFDYWGRGTTLTVSS VL: DVLMTQIPVSLSVSLGDQASISCRSSESIVHSSGKTYLEWYLQKPGQSPKLLIYEVSNRFSGVPDRFSGSGSGTDFTLKISRVEAEDLGVYYCFQGSHVPWTFGGGTKLEIKR | no binding | no binding |
